Measured values: patent publication EP4289863A9 (Shanghai Huaota Biopharmaceutical Co., Ltd., dated 2024)

T1: human IL-36R (human, UniProt Q9HB29 20-575)
T1 sequence (looked up): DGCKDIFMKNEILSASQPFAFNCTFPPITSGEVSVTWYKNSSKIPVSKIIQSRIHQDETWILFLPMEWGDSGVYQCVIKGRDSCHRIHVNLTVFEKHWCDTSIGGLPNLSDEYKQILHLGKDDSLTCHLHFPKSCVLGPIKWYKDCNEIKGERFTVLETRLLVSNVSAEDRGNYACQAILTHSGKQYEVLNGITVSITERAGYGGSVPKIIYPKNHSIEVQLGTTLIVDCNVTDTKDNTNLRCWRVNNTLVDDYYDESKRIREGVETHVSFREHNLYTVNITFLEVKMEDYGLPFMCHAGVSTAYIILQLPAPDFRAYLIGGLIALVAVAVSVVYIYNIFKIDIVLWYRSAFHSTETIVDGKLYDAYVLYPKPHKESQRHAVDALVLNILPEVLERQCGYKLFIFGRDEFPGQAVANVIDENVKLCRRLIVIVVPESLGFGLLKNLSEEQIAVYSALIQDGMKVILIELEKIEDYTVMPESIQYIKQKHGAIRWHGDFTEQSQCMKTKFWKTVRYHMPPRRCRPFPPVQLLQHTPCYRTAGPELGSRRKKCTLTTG

T2: His-tagged human IL-1 Rrp2/IL-1R6 protein (human, UniProt Q9HB29 20-335, limits assumed)
T2 construct: Bought protein; also called His-tagged human IL-1 Rrp2/IL-IR6 protein; not shown: His tag
T2 sequence (looked up): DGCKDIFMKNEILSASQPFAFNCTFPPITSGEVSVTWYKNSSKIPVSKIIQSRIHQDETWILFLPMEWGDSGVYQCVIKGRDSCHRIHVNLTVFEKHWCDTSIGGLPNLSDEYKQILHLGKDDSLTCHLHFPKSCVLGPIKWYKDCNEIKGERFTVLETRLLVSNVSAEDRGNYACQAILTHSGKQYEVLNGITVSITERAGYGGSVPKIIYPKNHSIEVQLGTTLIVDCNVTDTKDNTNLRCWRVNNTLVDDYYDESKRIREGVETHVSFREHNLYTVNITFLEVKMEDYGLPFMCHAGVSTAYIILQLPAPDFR

T3: Human IL-17A (human, UniProt Q16552 24-155)
T3 sequence (looked up): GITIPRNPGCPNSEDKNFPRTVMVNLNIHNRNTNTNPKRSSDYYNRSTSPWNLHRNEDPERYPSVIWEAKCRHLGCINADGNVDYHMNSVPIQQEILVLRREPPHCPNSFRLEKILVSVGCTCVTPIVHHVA

T4: IL17A (analyte of Table 17) (Homo sapiens (Human), UniProt Q16552 24-155)
T4 sequence: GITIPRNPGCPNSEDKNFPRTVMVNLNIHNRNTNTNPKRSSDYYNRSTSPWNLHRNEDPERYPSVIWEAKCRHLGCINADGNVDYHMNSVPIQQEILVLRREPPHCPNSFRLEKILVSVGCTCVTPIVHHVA

T5: IL36R (analyte of Table 17) (Homo sapiens (Human), UniProt Q9HB29 20-335)
T5 sequence: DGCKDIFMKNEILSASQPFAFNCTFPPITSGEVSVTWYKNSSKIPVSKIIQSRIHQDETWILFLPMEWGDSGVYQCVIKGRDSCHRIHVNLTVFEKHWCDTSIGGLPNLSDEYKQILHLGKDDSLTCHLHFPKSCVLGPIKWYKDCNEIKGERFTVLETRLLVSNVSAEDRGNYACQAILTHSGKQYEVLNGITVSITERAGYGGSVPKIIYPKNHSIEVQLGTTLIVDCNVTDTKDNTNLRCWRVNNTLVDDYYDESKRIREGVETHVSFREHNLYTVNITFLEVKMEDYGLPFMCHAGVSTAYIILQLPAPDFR


Assays:
[1] = target: T1, human IL-36R; assay: cell-based or functional assay
[2] = target: T1, human IL-36R; assay: cell-based or functional assay; remark: listed apart in the source
[3] = target: T1, human IL-36R; assay: cell-based or functional assay; remark: listed apart in the source
[4] = target: T1, human IL-36R; assay: cell-based or functional assay; remark: listed apart in the source
[5] = target: T2, His-tagged human IL-1 Rrp2/IL-1R6 …; assay: SPR Biacore 8K, His-tagged antigen captured by anti-His antibody, antibody as analyte, 1:1 model
[6] = target: T1, human IL-36R; assay: cell-based or functional assay; remark: listed apart in the source
[7] = target: T3, Human IL-17A; assay: cell-based or functional assay
[8] = target: T1, human IL-36R; assay: flow cytometry on CHO-K1-huIL-36R-5E10/2F10 cells
[9] = target: T4, IL17A (analyte of Table 17); assay: SPR Biacore 8K, antibody captured on anti-human chip, antigen as analyte, 1:1 model
[10] = target: T1, human IL-36R; assay: flow cytometry on CHO-K1 cells expressing human IL-36R
[11] = target: T6, monkey IL-36R (monkey); assay: flow cytometry on CHO-K1 cells expressing monkey IL-36R
T6 construct: whole, on cells

[12] = target: T1, human IL-36R; assay: cell-based or functional assay; remark: listed apart in the source
[13] = target: T5, IL36R (analyte of Table 17); assay: SPR Biacore 8K, antibody captured on anti-human chip, antigen as analyte, 1:1 model

Row | HuIL-6 detected in HIF under IL-36β stimulation IC50 [1] [µg/mL] | HuIL-6 detected in HIF under IL-36α stimulation IC50 [2] [µg/mL] | IC50 of GM-CSF release, NCI/ADR-RES cells stimulated with IL-36α [3] [µg/mL] | IC50 of GM-CSF release, NCI/ADR-RES cells stimulated with IL-36β [3] [µg/mL] | IC50 of GM-CSF release, NCI/ADR-RES cells stimulated with IL-36γ [3] [µg/mL] | IC50 of IL-6 release, NCI/ADR-RES cells stimulated with IL-36α [3] [µg/mL] | IC50 of IL-6 release, NCI/ADR-RES cells stimulated with IL-36β [3] [µg/mL] | IC50 of IL-6 release, NCI/ADR-RES cells stimulated with IL-36γ [3] [µg/mL] | IC50 of IL-8 release, NCI/ADR-RES cells stimulated with IL-36α [3] [µg/mL] | IC50 of IL-8 release, NCI/ADR-RES cells stimulated with IL-36β [3] [µg/mL] | IC50 of IL-8 release, NCI/ADR-RES cells stimulated with IL-36γ [3] [µg/mL] | IC50 of pNF-κB, NCI/ADR-RES cells stimulated with IL-36β [3] [ng/mL] | pNFκB detected in HIF under IL-36β stimulation IC50 [4] [µg/mL] | Kd [5] [nM] | koff [5] [s⁻¹] | kon [5] [M⁻¹ s⁻¹] | EC50 of inhibition of IL-6 content, NCI/ADR-RES cells stimulated with IL-36β [6] [nM] | EC50 of inhibition of IL-6 secretion, HT-1080 cells stimulated with h IL17-A and h TNF-α [7] [nM] | EC50 [8] [nM] | Kd [9] [nM] | Binder | also measured
1 | 0.0837 | 0.146 | 0.0328 | 0.0224 | 0.0288 | 0.0332 | 0.0204 | 0.0198 | 0.0439 | 0.0292 | 0.0284 | 115 | 0.1 | 0.0254 | 1.68e-05 | 660000 | – | – | – | – | anti-IL-36R chimeric antibody 900497 (antibody, V domains shown, Human-mouse chimera: human IgG1 heavy constant region with L234A and L235A (Eu numbering), human kappa light constant region) VH: QVQLQQTGSVLVRPGTSVKLSCKASGYTFTSSWMHWAKQRPGQGLEWIGEIHPNSAKTNYNEKFKGKATLTVDTFSSTAYVDLSSLASEDSAVYYCARVDYGKPWFAYWGQGTLVTVSA VL: QIVLTQSPTIMSASPGERVTMTCSASSSVSSSYLHWYQQKPGSSPKLWIYSTSNLASGVPARFSGSGSGTSYSLTINSMEAEDAATYYCQQFQSSPLTFGAGTKLGLK | –
2 | – | – | – | – | – | – | – | – | – | – | – | – | – | – | – | – | 0.48 | 0.0766 | 0.693 | 0.00613 | IL17A-IL36R bispecific antibody 700007 (bispecific antibody, not shown: heavy constant region CH1-CH2-CH3) heavy (part 1 of 2): QVQLVQSGSELKKPGASVKVSCKASEYIFTNYGMNWVKQAPGQGFEWMGWIDTNTGEPTYAQGFTGRFVFSLDTSVSTAYLQISSLKAEDTATYYCANYGWGYFDYWGQGTTVTVSS heavy (part 2 of 2): GGGGSGGGGSGGGGSGGGGSQIVLTQSPGTLSLSPGERATLSCRASSSVSSSYLHWYQQKPGQAPRLWIYSTSSRATGIPDRFSGSGSGTDFTLTISRLEPEDFATYYCQQFQSSPLTFGQGTKLEIKGGGGSGGGGSGGGGSGGGGSQVQLVQSGAEVKKPGASVKVSCKASGYTFTSSWMHWAKQAPGQGLEWIGEIHPNSAKTNYNQKFQGRVTMTRDTSISTAYMELSRLRSDDTAVYYCARVDYGKPWFAYWGQGTLVTVSS light: DVVMTQTPPSLPVNPGEPASISCRSSQSLVHSNGYTYLHWYLQKPGQSPQLLIYKVSNHLSGVPDRFSGSGSGTDFTLKISWVEAEDVGVYFCSQSTHVPYTFGGGTKLEIKRTVAAPSVFIFPPSDEQLKSGTASVVCLLNNFYPREAKVQWKVDNALQSGNSQESVTEQDSKDSTYSLSSTLTLSKADYEKHKVYACEVTHQGLSSPVTKSFNRGEC | koff [9]: 4.33e-05 s⁻¹; kon [9]: 7.06e+06 M⁻¹ s⁻¹
3 | – | – | – | – | – | – | – | – | – | – | – | – | – | – | – | – | 0.65 | 0.0999 | 0.799 | 0.00796 | IL17A-IL36R bispecific antibody 700009 (bispecific antibody, not shown: heavy constant region CH1-CH2-CH3) heavy (part 1 of 2): QVQLVQSGSELKKPGASVKVSCKASEYIFTNYGMNWVKQAPGQGFEWMGWIDTNTGEPTYAQGFTGRFVFSLDTSVSTAYLQISSLKAEDTATYYCANYGWGYFDYWGQGTTVTVSS heavy (part 2 of 2): GGGGSGGGGSGGGGSGGGGSQIVLTQSPGTLSLSPGERATLSCRASSSVSSSYLHWYQQKPGQAPRLWIYSTSSRATGIPDRFSGSGSGTDFTLTISRLEPEDFATYYCQQFQSSPLTFGQGTKLEIKGGGGSGGGGSGGGGSGGGGSGGGGSQVQLVQSGAEVKKPGASVKVSCKASGYTFTSSWMHWAKQAPGQGLEWIGEIHPNSAKTNYNQKFQGRVTMTRDTSISTAYMELSRLRSDDTAVYYCARVDYGKPWFAYWGQGTLVTVSS light: DVVMTQTPPSLPVNPGEPASISCRSSQSLVHSNGYTYLHWYLQKPGQSPQLLIYKVSNHLSGVPDRFSGSGSGTDFTLKISWVEAEDVGVYFCSQSTHVPYTFGGGTKLEIKRTVAAPSVFIFPPSDEQLKSGTASVVCLLNNFYPREAKVQWKVDNALQSGNSQESVTEQDSKDSTYSLSSTLTLSKADYEKHKVYACEVTHQGLSSPVTKSFNRGEC | koff [9]: 5.71e-05 s⁻¹; kon [9]: 7.17e+06 M⁻¹ s⁻¹
4 | 0.0546 | 0.0479 | 0.022 | 0.0174 | 0.0198 | 0.015 | 0.0139 | 0.0162 | 0.0315 | 0.0223 | 0.0198 | 71.4 | 0.105 | 0.0452 | 4.37e-05 | 967000 | 0.069 | – | 0.32 | – | humanized anti-IL-36R antibody 900527 (antibody, V domains shown, IgG1 (vector with L234A, L235A) and human kappa) VH: QVQLVQSGAEVKKPGASVKVSCKASGYTFTSSWMHWAKQAPGQGLEWIGEIHPNSAKTNYNQKFQGRVTMTRDTSISTAYMELSRLRSDDTAVYYCARVDYGKPWFAYWGQGTLVTVSS VL: QIVLTQSPGTLSLSPGERATLSCRASSSVSSSYLHWYQQKPGQAPRLWIYSTSSRATGIPDRFSGSGSGTDFTLTISRLEPEDFATYYCQQFQSSPLTFGQGTKLEIK | EC50 [10]: 0.062 µg/mL; EC50 [11]: 0.0595 µg/mL; HuIL-6 detected in NCI/ADR-RES under IL-36β stimulation IC50 [12]: 0.00887 µg/mL; Kd [13]: 0.141 nM; koff [13]: 0.00015 s⁻¹; kon [13]: 1.07e+06 M⁻¹ s⁻¹
5 | – | – | 0.0206 | 0.0184 | 0.0179 | 0.0124 | 0.0223 | 0.0121 | 0.0398 | 0.0221 | 0.018 | 105 | – | 0.0148 | 1.34e-05 | 904000 | – | – | – | – | humanized anti-IL-36R antibody 900513 (antibody, V domains shown, IgG1 (vector with L234A, L235A) and human kappa) VH: QVQLVQSGAEVKKPGASVKVSCKASGYTFTSSWMHWAKQAPGQGLEWIGEIHPNSAKTNYNQKFQGRVTMTRDTSISTAYMELSRLRSDDTAVYYCARVDYGKPWFAYWGQGTLVTVSS VL: EIVLTQSPGTLSLSPGERATLSCSASSSVSSSYLHWYQQKPGQAPRLWIYSTSNRATGIPDRFSGSGSGTDFTLTISRLEPEDFATYYCQQFQSSPLTFGQGTKLEIK | –
6 | – | – | 0.0202 | 0.0186 | 0.021 | 0.0216 | 0.0168 | 0.0176 | 0.0304 | 0.022 | 0.018 | 64.9 | – | 0.0579 | 5.1e-05 | 881000 | – | – | – | – | humanized anti-IL-36R antibody 900534 (antibody, V domains shown, IgG1 (vector with L234A, L235A) and human kappa) VH: QVQLVQSGAEVKKPGASVKVSCKASGYTFTSSWMHWAKQAPGQGLEWIGEIHPNSAKTNYNQKFQGRVTMTRDTSISTAYMELSRLRSDDTAVYYCARVDYGKPWFAYWGQGTLVTVSS VL: QIVLTQSPGTLSLSPGERATLSCRASSSVSSSYLHWYQQKPGQAPRLLIYSTSSRATGIPDRFSGSGSGTDFTLTISRLEPEDFATYYCQQFQSSPLTFGQGTKLEIK | –
